Earlier results on 1 molecule are cited in patent US5397694A, “Protease inhibitor” (Merck Patent GmbH, priority 1989, dated 1995).

B1: Eglin C: Eglin variant with tyrosine where Eglin B has histidine (protein, UniProt P01051 1-70, looked up)
Eglin C: TEFGSELKSFPEVVGKTVDQAREYFTLHYPQYDVYFLPEGSPVTLDLRYNRVRVFYNPGTNVVNHVPHVG
B1: the “isoelectric point (pI), published report” value is given as 6.45.
